Experimental data reported in patent publication US20200172896, “EVOLUTION OF BIOACTIVE SEQUENCE-DEFINED SYNTHETIC POLYMERS USING DNA-TEMPLATED POLYMERIZATION” (President and Fellows of Harvard College, published 2020).

Key:
[1] = target: T1, PCSK9 (Homo sapiens, UniProt Q8NBP7;Q8NBP7 Q8NBP7:31-152,Q8NBP7:153-692); assay: pulldown; unfunctionalized DNA, no evident binding; details: tags: ACROBiosystems PC9-H5223
[2] = target: PCSK9 mature, lacking prodomain (Homo sapiens, UniProt Q8NBP7 Q8NBP7:153-692); assay: SPR; no apparent binding, 2-60 nM protein; details: tags: ACROBiosystems PC9-H5226; label: 3' iSp18-dual biotin
Chain of PCSK9 mature, lacking prodomain (Q8NBP7 153-692, one chain of several): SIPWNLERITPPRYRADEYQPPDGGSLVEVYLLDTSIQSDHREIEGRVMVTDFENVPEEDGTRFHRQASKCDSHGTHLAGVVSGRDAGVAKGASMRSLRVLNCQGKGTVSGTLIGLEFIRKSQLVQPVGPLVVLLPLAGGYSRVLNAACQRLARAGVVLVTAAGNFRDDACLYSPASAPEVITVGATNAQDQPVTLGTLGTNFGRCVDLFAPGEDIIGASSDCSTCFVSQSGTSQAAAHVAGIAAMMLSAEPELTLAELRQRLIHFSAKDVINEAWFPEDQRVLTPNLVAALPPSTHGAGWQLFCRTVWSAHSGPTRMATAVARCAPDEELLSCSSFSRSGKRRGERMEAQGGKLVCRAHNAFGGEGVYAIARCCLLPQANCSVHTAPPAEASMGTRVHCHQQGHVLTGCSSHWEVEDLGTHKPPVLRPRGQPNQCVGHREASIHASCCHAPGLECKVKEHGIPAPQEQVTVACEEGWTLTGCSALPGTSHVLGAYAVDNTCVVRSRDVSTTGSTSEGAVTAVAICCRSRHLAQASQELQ
Experimental: (§1) All SPR assays were performed at 25° C. on a Biacore X100 or Biacore T200 (GE Healthcare Life Sciences). […] HBS-EP buffer (GE Life Sciences, BR100188), diluted by MilliQ water to 0.9×, was used as the bulk running buffer. Each experiment consisted of three start-up cycles followed by multiple data collection and blank cycles. […] Afterwards, four ascending concentrations of PCSK9 protein [10, 30, 100, 300 nM protein supplemented with 1 mg/ml salmon sperm DNA (Invitrogen, 15632-011) as nonspecific binding reducer for PCSK9-A5 and its variants; 2, 6, 20, 60 nM protein without salmon sperm DNA for PCSK9-Evo5 and its variants] in 0.9×HBS-EP were injected onto both flow cells in series at 30 μL/min for 150 seconds each, followed by 240 seconds of dissociation. Both flow cells were then regenerated with a 3:1 mixture of 8 M guanidinium chloride and 1 M NaOH following manufacturer's instructions. Blank cycles were run similarly except that 0.9×HBS-EP (containing 1 mg/ml salmon sperm DNA when PCSK9-A5 and its variants were assayed) without PCSK9 protein was injected.

[3] = target: T1, PCSK9; assay: SPR; 0.9x HBS-EP, 25 C, immobilized HFNAP; details: tags: ACROBiosystems PC9-H5223; label: 3' iSp18-dual biotin
Experimental: (§2) All SPR assays were performed at 25° C. on a Biacore X100 or Biacore T200 (GE Healthcare Life Sciences). Binding kinetics between enzymatically synthesized biotinylated HFNAPs and unlabeled recombinant proteins were measured using single-cycle kinetics with the Biotin CAPture kit (GE Life Sciences) using 0.9×HBS-EP buffer (GE Life Sciences) at a flow rate of 30 μL/min. The injected PCSK9 concentration ranged from 10 to 300 nM for PCSK9-A5 and its variants, or from 2 to 60 nM for PCSK9-Evo5 and its variants. The injected IL-6 concentration ranged from 10 to 300 nM.
as §1, with “Both flow cells were then regenerated with a 3:1 mixture of 8 M guanidinium chloride and 1 M NaOH following manufacturer's instructions. Blank cycles were run similarly except that 0.9×HBS-EP (containing 1 mg/ml salmon sperm DNA when PCSK9-A5 and its variants were assayed) without PCSK9 protein was injected.” left out

[4] = target: T1, PCSK9; assay: SPR; 0.9x HBS-EP, 25 C; details: tags: ACROBiosystems PC9-H5223; label: biotin
Experimental: as §2
as §1, with “Both flow cells were then regenerated with a 3:1 mixture of 8 M guanidinium chloride and 1 M NaOH following manufacturer's instructions. Blank cycles were run similarly except that 0.9×HBS-EP (containing 1 mg/ml salmon sperm DNA when PCSK9-A5 and its variants were assayed) without PCSK9 protein was injected.” left out

[5] = target: PCSK9 (biotinylated Avi-tagged) (UniProt Q8NBP7;Q8NBP7 Q8NBP7:31-152,Q8NBP7:153-692); assay: SPR; immobilized PCSK9, 0.9x HBS-EP, 25 C; details: tags: biotinylated Avi-tag, ACROBiosystems PC9-H82E7
Chain of PCSK9 (biotinylated Avi-tagged) (Q8NBP7 31-152, chain 1 of 2): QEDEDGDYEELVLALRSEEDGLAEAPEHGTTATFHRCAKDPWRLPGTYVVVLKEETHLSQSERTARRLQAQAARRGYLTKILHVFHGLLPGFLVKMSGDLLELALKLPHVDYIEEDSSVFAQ
Chain of PCSK9 (biotinylated Avi-tagged) (Q8NBP7 153-692, chain 2 of 2): as the sequence (Q8NBP7 153-692, one chain of several) above
Excerpt: Biotinylated PCSK9 in 0.9×HBS buffer was immobilized onto the active flow cell to ˜1000 RU. […] Kinetic parameters were fitted to double-blank-subtracted sensograms under a 1:1 binding model using BIAEvaluation software.

[6] = target: T1, PCSK9; assay: inhibition; inhibition of 20 nM PCSK9 binding to immobilized LDLR by SPR; HEPES, NaCl, 0.1 mM CaCl2, pH 7.5; details: tags: ACROBiosystems PC9-H5223
Experimental: Binding of PCSK9 on surface-immobilized LDLR in the presence of various competing agents was measured on a Series S SA chip using 10 mM HEPES, 150 mM NaCl, 0.1 mM CaCl₂, 0.005% Tween-20, pH 7.5 as bulk buffer at a flow rate of 10 μL/min. The injected solutions contained 20 nM PCSK9 and various competing agents ranging from 2 to 200 nM.
Binding of PCSK9 on surface-immobilized LDLR in the presence of various competing agents was measured on a Series S SA chip. The bulk running buffer was 10 mM HEPES, 150 mM NaCl, 0.1 mM CaCl₂, 0.005% Tween-20, pH 7.5. […] The surface was regenerated using two consecutive one-minute injections of 50 mM HCl. Blank cycles were run similarly except that running buffer containing 1 mg/ml non-specific binding reducer without protein was injected. Response levels at the end of the injection periods from double-blank-subtracted sensograms were recorded.

[7] = target: T1, PCSK9; assay: SPR; two-state reaction kinetic model; details: tags: ACROBiosystems PC9-H5223; label: 3' iSp18-dual biotin
Experimental: as §2
as §1, with “Both flow cells were then regenerated with a 3:1 mixture of 8 M guanidinium chloride and 1 M NaOH following manufacturer's instructions. Blank cycles were run similarly except that 0.9×HBS-EP (containing 1 mg/ml salmon sperm DNA when PCSK9-A5 and its variants were assayed) without PCSK9 protein was injected.” left out

[8] = target: T1, PCSK9; assay: SPR; 0.9x HBS-EP, salmon sperm DNA 1 mg/ml, 25 C; details: tags: ACROBiosystems PC9-H5223; label: 5' dual biotin-iSp18
Experimental: as §2
as §1, with “Both flow cells were then regenerated with a 3:1 mixture of 8 M guanidinium chloride and 1 M NaOH following manufacturer's instructions. Blank cycles were run similarly except that 0.9×HBS-EP (containing 1 mg/ml salmon sperm DNA when PCSK9-A5 and its variants were assayed) without PCSK9 protein was injected.” left out

T1 sequence (Q8NBP7 31-152, chain 1 of 2): as the sequence (Q8NBP7 31-152, chain 1 of 2) above
T1 sequence (Q8NBP7 153-692, chain 2 of 2): as the sequence (Q8NBP7 153-692, one chain of several) above

B1: PCSK9A7-DNA (ssDNA)
DNA: CGAATCAGATTGGACCAGTCTTCCCTATTCCTCTACCGTTTGTTCTCTTACTTTCACCTTCTGGAGTCCAGATGTAGGTAG
binding result [1]: no binding

B2: PCSK9A1-DNA (ssDNA)
DNA: CGAATCAGATTGGACCAGCCACTATATTCTCTCTCCTACCGTTTGCCTTTGCATCACCTTCTGGAGTCCAGATGTAGGTAG
binding result [1]: no binding

B3: PCSK9A2-DNA (ssDNA)
DNA: CGAATCAGATTGGACCAGCAACAATGATTCTTCTACCGTTTTTGCCCTCACCTTCTGCGCTGAGAGTCCAGATGTAGGTAG
binding result [1]: no binding

B4: PCSK9A4-DNA (ssDNA)
DNA: CGAATCAGATTGGACCAGCCCCAATGCTTTTCGTTTCTATCACGTCTTTAGCGGTACCTATTCGAGTCCAGATGTAGGTAG
binding result [1]: no binding

B5: PCSK9-Evo5 (ssDNA)
DNA: TGCTACCGTTGTTTACCCTGCCACCTTCTGGAGTCCAGATGTAGGTAG
modifications: HFNAP, C5 side chain on 5' pyrimidine of codons TGC primary alcohol, TAC imidazole, CGT cyclopentyl, TGT phenol, TTA allylamine, CCC cyclopropyl, TGC primary alcohol, CAC isopentyl, CTT cyclopentyl, CTG cyclopentyl
binding result [2]: no binding | Kd [3]: 3 nM

B6: PCSK9-Evo5 3 side chains (ssDNA)
DNA: B5 DNA
modifications: only three side chains: phenol at position 9, isopentyl at position 21, cyclopentyl at position 24 (so in the source); rest unfunctionalized DNA [phenol at 9, isopentyl at 21, cyclopentyl at 24 (positions as printed); all other side chains removed; base sequence unchanged]
Kd [4]: 3.7 nM

TGCTACCGTTGTTTACCCTGCCACCTTCTGGAGTCCAGATGTAGGTAG (ssDNA, side chains as PCSK9-Evo5, 3' idT) [PCSK9-Evo5-syn]
Kd [5]: 6.8 nM | IC50 [6]: ~9 nM

TTCTACCGTTTTTGCCCCCGGCACCTTCTGGAGTCCAGATGTAGGTAG (ssDNA, HFNAP side chains as PCSK9-A5) [PCSK9-A5Trunc]
Kd [4]: 68 nM

B7: PCSK9-Evo5 CAC delta side chain (ssDNA)
DNA: B5 DNA
modifications: as PCSK9-Evo5 except CAC unmodified [side chains as PCSK9-Evo5 except CAC codon (nt 22-24) unmodified (isopentyl removed); base sequence unchanged]
Kd [7]: ~420 nM

B8: PCSK9A3-DNA (ssDNA)
DNA: CGAATCAGATTGGACCAGTCTCTACAACCTCTTTCATGTCTTTAGCACTACTTATCCTGATCAGAGTCCAGATGTAGGTAG
binding result [1]: no binding

B9: PCSK9A6-DNA (ssDNA)
DNA: CGAATCAGATTGGACCAGTTTCAACCTCTTCTGCCTTCTCCACGGCTCCTTCTGCGTTGTTCCGAGTCCAGATGTAGGTAG
binding result [1]: no binding

B10: PCSK9-A5 (ssDNA)
DNA: CGAATCAGATTGGACCAGCCACGTTACTGATTCTTCTACCGTTTTTGCCCCCGGCACCTTCTGGAGTCCAGATGTAGGTAG
modifications: HFNAP, C5 side chain on the 5' pyrimidine of each of the 15 codons in the variable region (19-63): CCA cyclopropyl, CGT/CTT/CTG cyclopentyl, TAC imidazole, TGA/TGC primary alcohol, TTC allylamine, TTT phenol, CCC cyclopropyl, CGG/CAC isopentyl
Kd [8]: 98 nM
